Assay results taken from patent publication US20250283030A1, “Biosynthesis of Phenylpropanoid Compounds” (BGENE GENETICS, priority 2021, published 2025).
Positions count from the first letter of the chain named. Numbers in names are those of the source. Entries after “also recorded” stand apart in the source; their conditions may differ.

Experiments:
[1] = system: wild-type Pseudomonas putida AroF-I enzyme; assay: Enzymatic activity assay (PEP consumption by HPLC), inhibition by tyrosine; assay type: biochemical; conditions: 1 mM tyrosine, 300 μM PEP, 300 μM E4P, 60 minutes at 30° C., FIG. 1
Procedure: The activity of the enzymes is measured by monitoring the disappearance of the substrate using HPLC (High Pressure Liquid Chromatography) detection. The reaction is performed in a final volume of 200 μl with 40 mM of phosphate buffer, pH 7, 300 μM of phospho(enol)pyruvate (PEP), 20 μg of purified enzyme, 1 mM of tyrosine (or another aromatic amino acid) or 3 μM of HCl, the volume being completed with ultrapure water. After pre-incubation for 2 minutes at 30° C., the reaction is initiated by adding 300 μM of erythrose-4-phosphate […]) and the reaction mixture is incubated for 60 minutes at 30° C. Finally, the mixture is heated for 5 minutes at 80° C. in order to stop the reaction and precipitate the proteins. The enzymatic activity assays are firstly centrifuged for 10 minutes at 15 000×g in order to precipitate the proteins. The supernatant obtained is filtered over a 0.22 μm membrane before HPLC analysis. The method used is described below: • System: Agilent 1100 (Agilent) • Column: Luna OMEGA polar C18 (Phenomenex) • Mobile phase: 1 mM phosphoric acid • Flow rate: 0.3 ml/min • UV detection: 220 nm • Injection: 5 μl • Duration of analysis: 15 minutes In order to quantify the amount of PEP present in the samples, a series of standards is analyzed, with PEP concentrations from 0.1 mM to 1 mM.

AroF-I enzyme = assay: Enzymatic activity assay (PEP consumption by HPLC) of AroF-I mutants with or without tyrosine; assay type: biochemical, Pseudomonas putida; conditions: for resistance of the enzyme to inhibition by tyrosine: 1 mM tyrosine, PEP consumed compared to AroF-I WT, FIG. 2-4; for enzymatic activity (PEP consumed): in the presence or absence of tyrosine, FIG. 3
Procedure: In order to express and purify the AroF-I enzyme and the mutants derived therefrom, the corresponding genes are cloned in a pET28_b(+) plasmid with a His tag grafted to the N-terminal part of the protein (upstream of the gene's ATG).
The activity of the enzymes is measured by monitoring the disappearance of the substrate using HPLC (High Pressure Liquid Chromatography) detection.
The reaction is performed in a final volume of 200 μl with 40 mM of phosphate buffer, pH 7, 300 μM of phospho(enol)pyruvate (PEP), 20 μg of purified enzyme, 1 mM of tyrosine (or another aromatic amino acid) or 3 μM of HCl, the volume being completed with ultrapure water.
After pre-incubation for 2 minutes at 30° C., the reaction is initiated by adding 300 μM of erythrose-4-phosphate (E4P) and the reaction mixture is incubated for 60 minutes at 30° C.
Finally, the mixture is heated for 5 minutes at 80° C. in order to stop the reaction and precipitate the proteins.
The enzymatic activity assays are firstly centrifuged for 10 minutes at 15 000×g in order to precipitate the proteins. The supernatant obtained is filtered over a 0.22 μm membrane before HPLC analysis.
The method used is described below: • System: Agilent 1100 (Agilent) • Column: Luna OMEGA polar C18 (Phenomenex) • Mobile phase: 1 mM phosphoric acid • Flow rate: 0.3 ml/min • UV detection: 220 nm • Injection: 5 μl • Duration of analysis: 15 minutes
In order to quantify the amount of PEP present in the samples, a series of standards is analyzed, with PEP concentrations from 0.1 mM to 1 mM.

`N[C@@H](Cc1ccc(O)cc1)C(=O)O` [tyrosine] was tested, and the “activity of the wild-type AroF-I enzyme in the presence of tyrosine” value [1] was “inhibited”.

B1: P160L/Q164A: Pseudomonas putida AroF-I DAHP synthase with P160L/Q164A double mutation, SEQ ID NO:3 (protein, listed as Pseudomonas putida)
chain: LAAGTRDLTSNTMADLPIDDLNVASNETLITPDQLKKEIPLSAKALQTVTAGREVVRNILDGKDHRLFVVVGPCSIHDIKAAHEYAERLKVLAEEVSDTLYLVMRVYFEKPRTTVGWKGLINDPYLDDSFKIQDGLHIGRKLLLDLAEMGLPTATEALDLISPAYLQDLISWSAIGARTTESQTHREMASGLSSAVGFKNGTDGGLTVAINALQSVSKPHRFLGINQEGGVSIVTTKGNPYGHVVLRGGNGKPNYDSVSVALCEQDLAKAKIKANIMVDCSHANSNKDPALQPLVMENVANQILEGNQSIIGLMVESHLNWGCQSIPKNLDDLQYGVSITDACIDWSATEKTLRSMHAKLKDVLPQRKRGLAAGTRDLTSNTMADLPIDDLNVASNETLITPDQLKKEIPLSAKALQTVTAGREVVRNILDGKDHRLFVVVGPCSIHDIKAAHEYAERLKVLAEEVSDTLYLVMRVYFEKPRTTVGWKGLINDPYLDDSFKIQDGLHIGRKLLLDLAEMGLPTATEALDLISPAYLQDLISWSAIGARTTESQTHREMASGLSSAVGFKNGTDGGLTVAINALQSVSKPHRFLGINQEGGVSIVTTKGNPYGHVVLRGGNGKPNYDSVSVALCEQDLAKAKIKANIMVDCSHANSNKDPALQPLVMENVANQILEGNQSIIGLMVESHLNWGCQSIPKNLDDLQYGVSITDACIDWSATEKTLRSMHAKLKDVLPQRKRG
In the case of B1, the “resistance of the enzyme to inhibition by tyrosine” value (AroF-I enzyme) is reported as “slightly improved”.

B2: P160L: Pseudomonas putida AroF-I DAHP synthase with P160L mutation, SEQ ID NO:2 (protein, listed as Pseudomonas putida)
chain: LAAGTRDLTSNTMADLPIDDLNVASNETLITPDQLKKEIPLSAKALQTVTAGREVVRNILDGKDHRLFVVVGPCSIHDIKAAHEYAERLKVLAEEVSDTLYLVMRVYFEKPRTTVGWKGLINDPYLDDSFKIQDGLHIGRKLLLDLAEMGLPTATEALDLISPQYLQDLISWSAIGARTTESQTHREMASGLSSAVGFKNGTDGGLTVAINALQSVSKPHRFLGINQEGGVSIVTTKGNPYGHVVLRGGNGKPNYDSVSVALCEQDLAKAKIKANIMVDCSHANSNKDPALQPLVMENVANQILEGNQSIIGLMVESHLNWGCQSIPKNLDDLQYGVSITDACIDWSATEKTLRSMHAKLKDVLPQRKRG
B2 was tested, and the “resistance of the enzyme to inhibition by tyrosine” value (AroF-I enzyme) was “partially resistant”.

B3: P160L/S193A: Pseudomonas putida AroF-I DAHP synthase with P160L/S193A double mutation, SEQ ID NO:4 (protein, listed as Pseudomonas putida)
chain: B2 chain with S193A
With B3 the “resistance of the enzyme to inhibition by tyrosine” value (AroF-I enzyme) was “virtually completely resistant; also recorded: synergistic effect” and the “enzymatic activity (PEP consumed)” value (AroF-I enzyme) was “restored virtually all the enzymatic activity”.

B4: P160L/G191K: Pseudomonas putida AroF-I DAHP synthase with P160L/G191K double mutation (protein)
chain: B2 chain with G191K
With B4 the “enzymatic activity (PEP consumed)” value (AroF-I enzyme) was “no longer has any activity”.
